Here are results for seven molecules from paper PMC11500415, “Chemical inhibition of stomatal differentiation by perturbation of the master-regulatory bHLH heterodimer via an ACT-Like domain” (Nature Communications, 2024).

Where a chain is given by its changes, count along the chain named. Numbers in names are those of the source. Where “and” joins values, the source holds several entries; their conditions need not be identical. Equal values may be shown once.

The subject of test [1] is Commelina benghalensis stomatal opening induced by light. The test is described as follows: Measurement of stomatal opening. It counts as in vivo. The conditions noted are these: leaf discs 1-6. The procedure:
The experiments were performed as described previously[30],[68]. Briefly, Stomidazolone or ABA were added to a multi-well plate with basal buffer [5 mM MES/bistrispropane (pH 6.5), 50 mM KCl, and 0.1 mM CaCl2] to be diluted to a final concentration of 50 or 20 µM, respectively. C. benghalensis plants were incubated in the dark overnight; then, 4 mm diameter leaf discs were excised from fully expanded leaves using a hole punch (Biopsy Punch, Kai Medical). Samples were immersed in a basal buffer containing compounds for 30 min before being exposed to light (150 µmol m^−2 s^−1 red light and 50 µmol m^−2 s^−1 blue light) for 3 h. The stomatal apertures were observed using a stereoscopic microscope (BX43; Olympus). The microscopic images were acquired with a charge-coupled device (CCD) camera (DP27; Olympus), followed by autofocus image processing using cellSens standard software (Olympus). Measurement of stomatal apertures of C. benghalensis was performed by using an automation program, DeepStomata[69].

Test [2] concerns Arabidopsis wild-type (WT) seedlings. Description: Stomatal development bioassay, seedlings in liquid culture. The conditions noted are these: 50 μM. Format: in vivo. As to the method: Arabidopsis accession Columbia (Col-0) was used as wild-type. […] Their genotype and transcript reduction were confirmed. The presence of transgenes/mutant alleles were confirmed by genotyping. For liquid culture with Stomidazolone (AYSJ929, compound 3), the analogs (AYSJ1059 (compound 5) and AYSJ1061 (compound 6)), degraded compound lzx103 (compound 4), and SIM3* (compound 7), all compounds were dissolved in dimethyl sulfoxide (DMSO, Molecular biology grade, Fujifilm Wako, Japan 046-21981), Col-0 seeds were sown in 96-well plates (TL5003; True Line) containing 95 μL of 1/2 MS media containing 0.5% sucrose with rotary shaking at 140 rpm under continuous light at 22 °C. Five μL of compounds were dissolved in DMSO at 10 mM and diluted with liquid 1/2 MS media to 1 mM and added on 1-day-old seedlings (final concentration, 50 μM). Seedlings were incubated for 8 days, and at day 9 seedling abaxial cotyledons were observed through confocal microscopy. For liquid culture of scrm-D_S343 and scrm-D_S423, 1/2 MS liquid media without sucrose was used. For the solid culture, 0, 20, 50 or 100 μM Stomidazolone were solidified with low-melting agarose (5805S, PrimeGelTM Agarose LMT 1-20 K, TAKARA Bio). Briefly, 1/2 MS salt, 0.5% sucrose, and 0.8% low melting agarose were mixed in water and autoclaved. After cooling the medium at around 30 °C, Stomidazolone (500x, dissolved in DMSO) was added and poured into 90 mm petri dishes (Asnol Petri Dish JP φ90 x 15 mm, 3-1491-01, AS ONE). Col-0 seeds were sown on Stomidazolone-containing 1/2 MS agarose media and grown under continuous light for 9 days.
For confocal microscopy, cell peripheries of seedlings were visualized with propidium iodide (Sigma, P4170). Images were acquired using LSM800 or LSM700 (Zeiss) using a 20x lens. The GFP, YFP reporter and PI signals were detected with excitation at 488 nm and an emission filter of 410 to 546 nm, at 488 nm and an emission filter of 410 to 546 nm, and with excitation at 561 nm and 582–617 nm emission range, respectively. Raw data were collected with 1024 × 1024 pixel images. For qualitative image presentation, Adobe Photoshop CC was used to trim and uniformly adjust the contrast/brightness.
For quantitative analysis of the abaxial leaf epidermis, confocal images were taken on the days after germination as indicated in the Figure legends. Preparation of images was done as described previously[32],[70]. For counting epidermal cell types, stomatal density, stomatal precursor cells (meristemoids), total stomata-lineage cells (stomata and meristemoids) were calculated by counting cell types in an area of 0.4 mm^2 (0.63 mm × 0.63 mm) and plotted as per mm^2. A series of Z-stack confocal images was obtained to obtain images covering the epidermis and capturing GFP/YFP signal from the reporter lines. The area and the number of epidermal cells were quantified by using FIJI-ImageJ. Statistical analyses were performed using R ver. 4.0.2. Sample sizes (n) are indicated and defined in each legend. For the multiple sample comparison, 1-way ANOVA was performed followed by a post hoc Tukey HSD test. For the two-sample comparison, Student’s T-test was performed. Graphs were generated using R ggplot2 package. For all boxplots, each box represents IQR (interquartile range), in which top, middle line, and bottom indicating 75, 50, and 25 percentiles, respectively, and the bar representing maximum to minimal values. Each magenta dot represents jittered individual data point. The datapoints that go beyond the bar are outliers, which are indicated as black dots. If the data point is greater than Q3 + 1.5*IQR (above the third quartile is greater than 1.5 times of the interquartile range) or less than Q1 − 1.5*IQR, that data point is classified as outlier. The color of Boxplot graph was based on ColorBrewer.org. The value of n, the number of each experiment or samples, the means of error bars, and how statistical significance was defined are indicated in a relevant figure legend. […]

Test [3] deals with T1, SCREAM (SCRM), recombinant full-length protein (1-494) (A. thaliana, UniProt Q9LSE2 1-494).
T1 construct: SCRM (ICE1), A. thaliana, residues 1-494; called full-length in the results; The methods describe thrombin removal of GST for all recombinant proteins; For the BLI runs of SCRM with MUTE one partner must have kept GST (anti-GST probes); also called ICE1; source: E. coli BL21, purified (glutathione resin, thrombin digestion, Superdex-200); not shown: GST, N-terminal, cleaved
T1 sequence (looked up): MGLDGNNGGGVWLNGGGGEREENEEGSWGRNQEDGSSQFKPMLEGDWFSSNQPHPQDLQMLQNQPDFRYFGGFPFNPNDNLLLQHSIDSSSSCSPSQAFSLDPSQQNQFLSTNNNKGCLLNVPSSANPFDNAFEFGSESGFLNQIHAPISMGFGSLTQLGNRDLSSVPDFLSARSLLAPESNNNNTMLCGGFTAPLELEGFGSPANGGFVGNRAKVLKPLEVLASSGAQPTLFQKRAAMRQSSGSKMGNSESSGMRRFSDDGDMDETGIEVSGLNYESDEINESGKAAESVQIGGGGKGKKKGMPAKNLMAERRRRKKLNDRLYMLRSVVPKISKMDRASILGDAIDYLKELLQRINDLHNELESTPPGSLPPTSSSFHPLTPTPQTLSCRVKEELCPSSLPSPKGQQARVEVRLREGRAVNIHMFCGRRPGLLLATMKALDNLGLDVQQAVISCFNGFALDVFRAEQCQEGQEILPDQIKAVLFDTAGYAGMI
Description: BLI; SCRM with MUTE or MUTE mutants in the presence of Stomidazolone (3) (MUTE pre-incubated); Octet Red96, anti-GST probes loaded with 500 nM GST-tagged protein; 30 °C; 1x PBS, 2% DMSO, 0.02% Tween20; 1:1 model; KD (SS) from steady-state analysis. The conditions noted are these: both partners purified. (In BLI a coated tip is dipped into the sample, and binding shifts an interference pattern.)

The target in test [4] is T1, SCREAM (SCRM), recombinant full-length …. The test is described as follows: BLI; SCRM with MUTE or MUTE mutants, no compound; Octet Red96, anti-GST probes loaded with 500 nM GST-tagged protein; 30 °C; 1x PBS, 2% DMSO, 0.02% Tween20; 1:1 model; KD (SS) from steady-state analysis. The conditions noted are these: both partners purified.
The target is the same in test [5]. The test is described as follows: BLI; SCRM with MUTE in the presence of AYSJ1059 (5); Octet Red96, anti-GST probes loaded with 500 nM GST-tagged protein; 30 °C; 1x PBS, 2% DMSO, 0.02% Tween20; 1:1 model; KD (SS) from steady-state analysis. The conditions noted are these: both partners purified.
For test [6] the target is unchanged. Description: BLI; SCRM with MUTE in the presence of AYSJ1061 (6); Octet Red96, anti-GST probes loaded with 500 nM GST-tagged protein; 30 °C; 1x PBS, 2% DMSO, 0.02% Tween20; 1:1 model; KD (SS) from steady-state analysis. The conditions noted are these: both partners purified.

Regarding `O=C1C(c2ccccc2)=NC(NS(=O)(=O)c2ccccc2)(c2ccccc2)N1S(=O)(=O)c1ccccc1` (racemic) [AYST929], the “stomatal movement, mean from 2 images from 1 leaf disc” value in test [1] (AYST929 50 µM) is 12.3654 and 10.3065 and 11.5398 and 6.9444 and 13.0998 and 7.007.
`CC1=CC(=O)CC(C)(C)C1(O)/C=C/C(C)=C\C(=O)O` (centres unmarked) [ABA, reference compound]: in test [1] (ABA 20 µM, 2 images per leaf disc), the “stomatal movement, value per image” value turned out to be 0. For the same molecule, the “stomatal movement, mean from 2 images from 1 leaf disc” value in test [1] (ABA 20 µM) came out at 0.
For `N=C(NS(=O)(=O)c1ccccc1)c1ccccc1` [lzx103], the “effect on stomatal development (in words)” value in test [2] (WT seedlings, liquid culture) was “did not cause any effects”. Also, in test [2] (WT, single seedlings n=8 (Fig. S3d), listed as Izx-103), the “Number of stomata per 1 mm2 of cotyledon abaxial epidermis” value is 199 per 1 mm2 and 211 per 1 mm2 and 202 per 1 mm2 and 216 per 1 mm2 and 194 per 1 mm2 and 192 per 1 mm2 and 175 per 1 mm2.

B1: MUTE, recombinant full-length protein (1-202), as used in BLI with SCRM (natural protein, A. thaliana, UniProt Q9M8K6 1-202, looked up)
chain: MSHIAVERNRRRQMNEHLKSLRSLTPCFYIKRGDQASIIGGVIEFIKELQQLVQVLESKKRRKTLNRPSFPYDHQTIEPSSLGAATTRVPFSRIENVMTTSTFKEVGACCNSPHANVEAKISGSNVVLRVVSRRIVGQLVKIISVLEKLSFQVLHLNISSMEETVLYFFVVKIGLECHLSLEELTLEVQKSFVSDEVIVSTN
notes: BLI probes were anti-GST and loaded with 500 nM GST-tagged protein; source: E. coli BL21, purified (glutathione resin)
In general, Kd refers to the concentration at which binding is half-saturated. The koff is the first-order rate constant of dissociation. As a reminder, the kon is a measure of how fast the partners come together. With B1, the Kd turned out to be 755 ± 9.5 nM in test [3], 6.8 ± 0.5 nM in test [4], 8.8 ± 0.6 nM in test [5] and 12.8 ± 0.8 nM in test [6]. Further, the koff was 0.00859 s⁻¹ in test [3], 0.000147 s⁻¹ in test [4], 0.000188 s⁻¹ in test [5] and 0.000234 s⁻¹ in test [6]. Moreover, the kon in test [3] was 11400 M⁻¹ s⁻¹; in test [4], 24200 M⁻¹ s⁻¹; in test [5] it was 21300 M⁻¹ s⁻¹; in test [6], 18200 M⁻¹ s⁻¹.

B2: MUTE_R133A_R134A, recombinant (natural protein, A. thaliana, UniProt Q9M8K6 1-202, looked up)
chain: B1 chain with R133A, R134A
notes: MUTE, A. thaliana, with R133A and R134A; source: E. coli BL21, purified (glutathione resin)
Regarding B2, in test [3], the Kd was 62.5 ± 8.2 nM, the koff came out at 0.000834 s⁻¹ and the kon was determined as 13300 M⁻¹ s⁻¹. Besides, in test [4], the Kd was 22.5 ± 1.8 nM, the koff came to 0.000256 s⁻¹ and the kon was 11300 M⁻¹ s⁻¹.

B3: MUTE_E162A_E163A, recombinant (natural protein, A. thaliana, UniProt Q9M8K6 1-202, looked up)
chain: B1 chain with E162A, E163A
notes: MUTE, A. thaliana, with E162A and E163A; source: E. coli BL21, purified (glutathione resin)
B3: in test [3], the Kd was 30.5 ± 4.8 nM, the koff worked out at 0.000634 s⁻¹ and the kon amounted to 20700 M⁻¹ s⁻¹. Also, in test [4], the Kd was found to be 11.5 ± 2.6 nM, the koff turned out to be 0.000334 s⁻¹ and the kon came out at 29000 M⁻¹ s⁻¹.

B4: MUTE_R133A_R134A_E162A_E163A, recombinant (natural protein, A. thaliana, UniProt Q9M8K6 1-202, looked up)
chain: B1 chain with R133A, R134A, E162A, E163A
notes: MUTE, A. thaliana, with R133A, R134A, E162A and E163A; source: E. coli BL21, purified (glutathione resin)
Take B4: in test [3], the dissociation constant Kd amounted to 96.5 ± 12.8 nM, the koff was 0.000336 s⁻¹ and the kon was 3480 M⁻¹ s⁻¹. Also, in test [4], the Kd was determined as 26.5 ± 3.7 nM, the koff amounted to 0.000414 s⁻¹ and the kon turned out to be 15600 M⁻¹ s⁻¹.
